Results on one molecule are retold here after PMC10297700.

The target in the data set is Rsc3ΔIDR (Saccharomyces cerevisiae, UniProt Q06639 1-885, del197-303). Description: EMSA.

B1: ACC1_TIM23 probe (RSC3 consensus oligonucleotide) (dsDNA)
DNA 1: ACGCGCGCGCGGCCGGGCCA
DNA 2: TGGCCCGGCCGCGCGCGCGT
Regarding B1, the binding result is recorded as “binds”.
